Each binder was assayed against FRMPD4, Q14CM0 (assay: holdup assay). Conditions: plain residues with an end cap or a label only (N-terminal biotin on a linker: ado-ado).
Design: key: below the threshold = too weak to quantify, mostly under pKd 3.1 to 4

Sequence of FRMPD4, Q14CM0 (Q14CM0 67-160): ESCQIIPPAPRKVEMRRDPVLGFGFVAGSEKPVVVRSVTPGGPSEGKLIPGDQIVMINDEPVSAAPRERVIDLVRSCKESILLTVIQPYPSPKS

RALRASESGI [ADGRE5, P48960] was tested. Which pKd did it give?
The pKd was “below the threshold”.

Each binder was assayed against T1, APBA2_2, Q99767 (assay: holdup assay). Conditions: plain residues with an end cap or a label only (N-terminal biotin on a linker: ado-ado).
T1 sequence (Q99767 654-744, limits assumed, looked up): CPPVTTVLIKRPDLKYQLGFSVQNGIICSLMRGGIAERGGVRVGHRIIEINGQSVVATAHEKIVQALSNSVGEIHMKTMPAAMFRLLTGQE
Design: key: below the threshold = too weak to quantify, mostly under pKd 3.1 to 4

With RALRASESGI [ADGRE5, P48960] as the binder, how does the pKd read?
The pKd was “below the threshold”.

These binders were tested against MAGI2_3, Q86UL8 (assay: holdup assay). Conditions: plain residues with an end cap or a label only (N-terminal biotin on a linker: ado-ado).
Sequence of MAGI2_3, Q86UL8 (Q86UL8 600-682): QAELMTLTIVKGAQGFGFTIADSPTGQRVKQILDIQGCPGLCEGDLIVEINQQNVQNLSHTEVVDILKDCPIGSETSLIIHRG
Design: key: below the threshold = too weak to quantify, mostly under pKd 3.1 to 4

For RALRASESGI [ADGRE5, P48960], which pKd is on record?
Its pKd is “below the threshold”.

These binders were tested against T2, HTRA4, P83105 (assay: holdup assay). Conditions: plain residues with an end cap or a label only (N-terminal biotin on a linker: ado-ado).
T2 sequence (P83105 378-476, limits assumed, looked up): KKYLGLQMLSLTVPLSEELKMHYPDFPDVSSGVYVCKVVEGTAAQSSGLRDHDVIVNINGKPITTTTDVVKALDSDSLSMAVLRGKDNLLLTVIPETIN
Design: key: below the threshold = too weak to quantify, mostly under pKd 3.1 to 4

With RALRASESGI [ADGRE5, P48960] as the binder, how does the pKd read?
The pKd was 3.62.

What follows are binders tested against MAGI2_2, Q86UL8 (assay: holdup assay). Conditions: plain residues with an end cap or a label only (N-terminal biotin on a linker: ado-ado).
Sequence of MAGI2_2, Q86UL8 (Q86UL8 410-522): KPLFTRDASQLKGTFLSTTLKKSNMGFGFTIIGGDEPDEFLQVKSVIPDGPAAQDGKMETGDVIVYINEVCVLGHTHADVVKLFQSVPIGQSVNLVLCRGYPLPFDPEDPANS
Design: key: below the threshold = too weak to quantify, mostly under pKd 3.1 to 4

RALRASESGI [ADGRE5, P48960] was tested. Which pKd did it give?
Its pKd is “below the threshold”.

The binders below were run against T3, ARHGAP21, Q5T5U3 (assay: holdup assay). Conditions: plain residues with an end cap or a label only (N-terminal biotin on a linker: ado-ado).
T3 sequence (Q5T5U3 45-169, limits assumed, looked up): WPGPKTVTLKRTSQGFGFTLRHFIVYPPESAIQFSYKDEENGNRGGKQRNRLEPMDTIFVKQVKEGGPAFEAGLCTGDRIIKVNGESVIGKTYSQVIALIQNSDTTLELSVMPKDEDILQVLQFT
Design: key: below the threshold = too weak to quantify, mostly under pKd 3.1 to 4

For RALRASESGI [ADGRE5, P48960], which pKd is on record?
Its pKd is 4.03.

What follows are binders tested against GRIP2_7, Q9C0E4 (assay: holdup assay). Conditions: plain residues with an end cap or a label only (N-terminal biotin on a linker: ado-ado).
Sequence of GRIP2_7, Q9C0E4 (Q9C0E4 934-1023): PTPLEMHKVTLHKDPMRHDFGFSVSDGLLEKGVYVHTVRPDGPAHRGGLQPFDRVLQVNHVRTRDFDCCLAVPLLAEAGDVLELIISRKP
Design: key: below the threshold = too weak to quantify, mostly under pKd 3.1 to 4

With RALRASESGI [ADGRE5, P48960] as the binder, how does the pKd read?
Its pKd is “below the threshold”.

What follows are binders tested against LAP2, Q96RT1 (assay: holdup assay). Conditions: plain residues with an end cap or a label only (N-terminal biotin on a linker: ado-ado).
Sequence of LAP2, Q96RT1 (Q96RT1 other isoform, or with tags, fused parts or gaps): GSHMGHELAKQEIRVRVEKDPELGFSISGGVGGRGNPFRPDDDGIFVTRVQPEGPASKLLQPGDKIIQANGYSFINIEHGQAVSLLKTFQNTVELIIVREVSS
Design: key: below the threshold = too weak to quantify, mostly under pKd 3.1 to 4

For RALRASESGI [ADGRE5, P48960], which pKd is on record?
Its pKd is “below the threshold”.

The binders below were run against MAGI2_5, Q86UL8 (assay: holdup assay). Conditions: plain residues with an end cap or a label only (N-terminal biotin on a linker: ado-ado).
Sequence of MAGI2_5, Q86UL8 (Q86UL8 915-1017): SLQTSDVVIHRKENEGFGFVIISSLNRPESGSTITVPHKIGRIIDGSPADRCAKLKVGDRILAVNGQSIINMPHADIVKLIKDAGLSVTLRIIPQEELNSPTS
Design: key: below the threshold = too weak to quantify, mostly under pKd 3.1 to 4

How did the pKd turn out when RALRASESGI [ADGRE5, P48960] was run?
The pKd was “below the threshold”.

Each binder was assayed against DLG4_2, P78352 (assay: holdup assay). Conditions: plain residues with an end cap or a label only (N-terminal biotin on a linker: ado-ado).
Sequence of DLG4_2, P78352 (P78352 155-259): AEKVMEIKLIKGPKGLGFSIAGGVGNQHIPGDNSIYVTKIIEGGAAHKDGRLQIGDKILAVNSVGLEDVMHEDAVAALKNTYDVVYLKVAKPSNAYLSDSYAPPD
Design: key: below the threshold = too weak to quantify, mostly under pKd 3.1 to 4

For RALRASESGI [ADGRE5, P48960], which pKd is on record?
Its pKd is “below the threshold”.

These binders were tested against MAGI1_1, Q96QZ7 (assay: holdup assay). Conditions: plain residues with an end cap or a label only (N-terminal biotin on a linker: ado-ado).
Sequence of MAGI1_1, Q96QZ7 (Q96QZ7 1-106): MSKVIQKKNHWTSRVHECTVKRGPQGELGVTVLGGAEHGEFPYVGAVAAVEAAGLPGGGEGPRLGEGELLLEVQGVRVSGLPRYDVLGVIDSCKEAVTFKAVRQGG
Design: key: below the threshold = too weak to quantify, mostly under pKd 3.1 to 4

Which pKd does the source give for RALRASESGI [ADGRE5, P48960] here?
The pKd was “below the threshold”.

Each binder was assayed against IL16_4, Q14005 (assay: holdup assay). Conditions: plain residues with an end cap or a label only (N-terminal biotin on a linker: ado-ado).
Sequence of IL16_4, Q14005 (Q14005 1229-1329): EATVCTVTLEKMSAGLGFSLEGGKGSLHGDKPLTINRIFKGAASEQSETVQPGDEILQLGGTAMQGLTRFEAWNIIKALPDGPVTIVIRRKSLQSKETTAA
Design: key: below the threshold = too weak to quantify, mostly under pKd 3.1 to 4

RALRASESGI [ADGRE5, P48960] was tested. Which pKd did it give?
The pKd was “below the threshold”.

The binders below were run against GRIP2_4, Q9C0E4 (assay: holdup assay). Conditions: plain residues with an end cap or a label only (N-terminal biotin on a linker: ado-ado).
Sequence of GRIP2_4, Q9C0E4 (Q9C0E4 446-548): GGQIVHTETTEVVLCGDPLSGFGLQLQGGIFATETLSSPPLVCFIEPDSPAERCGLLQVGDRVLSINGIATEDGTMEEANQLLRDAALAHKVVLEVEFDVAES
Design: key: below the threshold = too weak to quantify, mostly under pKd 3.1 to 4

RALRASESGI [ADGRE5, P48960] was tested. Which pKd did it give?
Its pKd is “below the threshold”.

Each binder was assayed against Inadl_5, Q8NI35 (assay: holdup assay). Conditions: plain residues with an end cap or a label only (N-terminal biotin on a linker: ado-ado).
Sequence of Inadl_5, Q8NI35 (Q8NI35 673-780): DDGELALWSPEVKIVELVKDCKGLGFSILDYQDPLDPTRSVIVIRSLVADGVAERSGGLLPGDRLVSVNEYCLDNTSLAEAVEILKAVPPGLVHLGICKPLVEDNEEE
Design: key: below the threshold = too weak to quantify, mostly under pKd 3.1 to 4

How did the pKd turn out when RALRASESGI [ADGRE5, P48960] was run?
Its pKd is “below the threshold”.

What follows are binders tested against GORASP1, Q9BQQ3 (assay: holdup assay). Conditions: plain residues with an end cap or a label only (N-terminal biotin on a linker: ado-ado).
Sequence of GORASP1, Q9BQQ3 (Q9BQQ3 1-208): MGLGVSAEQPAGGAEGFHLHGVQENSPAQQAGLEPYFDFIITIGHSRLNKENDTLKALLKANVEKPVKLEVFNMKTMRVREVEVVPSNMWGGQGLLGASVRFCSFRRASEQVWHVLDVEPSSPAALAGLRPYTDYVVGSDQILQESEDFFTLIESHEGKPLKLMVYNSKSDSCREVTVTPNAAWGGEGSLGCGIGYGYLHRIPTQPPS
Design: key: below the threshold = too weak to quantify, mostly under pKd 3.1 to 4

RALRASESGI [ADGRE5, P48960] was tested. Which pKd did it give?
Its pKd is “below the threshold”.

What follows are binders tested against GOPC, Q9HD26 (assay: holdup assay). Conditions: plain residues with an end cap or a label only (N-terminal biotin on a linker: ado-ado).
Design: key: below the threshold = too weak to quantify, mostly under pKd 3.1 to 4

How did the pKd turn out when RALRASESGI [ADGRE5, P48960] was run?
Its pKd is “below the threshold”.

Each binder was assayed against LNX1_1, Q8TBB1 (assay: holdup assay). Conditions: plain residues with an end cap or a label only (N-terminal biotin on a linker: ado-ado).
Sequence of LNX1_1, Q8TBB1 (Q8TBB1 261-371): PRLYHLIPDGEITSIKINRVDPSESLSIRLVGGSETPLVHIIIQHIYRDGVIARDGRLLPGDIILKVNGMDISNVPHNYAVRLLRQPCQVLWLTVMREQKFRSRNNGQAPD
Design: key: below the threshold = too weak to quantify, mostly under pKd 3.1 to 4

How did the pKd turn out when RALRASESGI [ADGRE5, P48960] was run?
Its pKd is “below the threshold”.

What follows are binders tested against Inadl_4, Q8NI35 (assay: holdup assay). Conditions: plain residues with an end cap or a label only (N-terminal biotin on a linker: ado-ado).
Sequence of Inadl_4, Q8NI35 (Q8NI35 547-651): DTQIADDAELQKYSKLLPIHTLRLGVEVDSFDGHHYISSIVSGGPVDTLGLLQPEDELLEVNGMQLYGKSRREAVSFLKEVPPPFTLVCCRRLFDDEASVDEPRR
Design: key: below the threshold = too weak to quantify, mostly under pKd 3.1 to 4

How did the pKd turn out when RALRASESGI [ADGRE5, P48960] was run?
Its pKd is “below the threshold”.

Each binder was assayed against HTRA1, Q92743 (assay: holdup assay). Conditions: plain residues with an end cap or a label only (N-terminal biotin on a linker: ado-ado).
Sequence of HTRA1, Q92743 (Q92743 360-477): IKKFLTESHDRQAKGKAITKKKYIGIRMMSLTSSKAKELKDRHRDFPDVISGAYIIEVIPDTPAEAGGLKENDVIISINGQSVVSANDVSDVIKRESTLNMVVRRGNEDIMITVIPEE
Design: key: below the threshold = too weak to quantify, mostly under pKd 3.1 to 4

For RALRASESGI [ADGRE5, P48960], which pKd is on record?
The pKd was “below the threshold”.

These binders were tested against FRMPD3, Q5JV73 (assay: holdup assay). Conditions: plain residues with an end cap or a label only (N-terminal biotin on a linker: ado-ado).
Sequence of FRMPD3, Q5JV73 (Q5JV73 12-100): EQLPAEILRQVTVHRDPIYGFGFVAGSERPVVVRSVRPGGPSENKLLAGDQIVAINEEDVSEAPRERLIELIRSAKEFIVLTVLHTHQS
Design: key: below the threshold = too weak to quantify, mostly under pKd 3.1 to 4

How did the pKd turn out when RALRASESGI [ADGRE5, P48960] was run?
The pKd was “below the threshold”.

What follows are binders tested against LDB3, O75112 (assay: holdup assay). Conditions: plain residues with an end cap or a label only (N-terminal biotin on a linker: ado-ado).
Sequence of LDB3, O75112 (O75112 1-94): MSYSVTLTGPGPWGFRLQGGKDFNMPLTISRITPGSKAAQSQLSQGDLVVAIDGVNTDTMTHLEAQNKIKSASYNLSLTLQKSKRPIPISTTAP
Design: key: below the threshold = too weak to quantify, mostly under pKd 3.1 to 4

For RALRASESGI [ADGRE5, P48960], which pKd is on record?
Its pKd is “below the threshold”.

The binders below were run against IL16_3, Q14005 (assay: holdup assay). Conditions: plain residues with an end cap or a label only (N-terminal biotin on a linker: ado-ado).
Sequence of IL16_3, Q14005 (Q14005 1107-1207): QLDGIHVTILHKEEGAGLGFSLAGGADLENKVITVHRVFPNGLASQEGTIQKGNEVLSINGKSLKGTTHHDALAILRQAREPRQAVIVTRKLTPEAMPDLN
Design: key: below the threshold = too weak to quantify, mostly under pKd 3.1 to 4

With RALRASESGI [ADGRE5, P48960] as the binder, how does the pKd read?
The pKd was “below the threshold”.

What follows are binders tested against T4, LNX2_2, Q8N448 (assay: holdup assay). Conditions: plain residues with an end cap or a label only (N-terminal biotin on a linker: ado-ado).
T4 sequence (Q8N448 334-432, limits assumed, looked up): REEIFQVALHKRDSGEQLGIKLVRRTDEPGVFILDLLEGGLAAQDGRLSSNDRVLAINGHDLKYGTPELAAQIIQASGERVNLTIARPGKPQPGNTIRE
Design: key: below the threshold = too weak to quantify, mostly under pKd 3.1 to 4

For RALRASESGI [ADGRE5, P48960], which pKd is on record?
Its pKd is “below the threshold”.

The binders below were run against DLG1_2, Q12959 (assay: holdup assay). Conditions: plain residues with an end cap or a label only (N-terminal biotin on a linker: ado-ado).
Sequence of DLG1_2, Q12959 (Q12959 314-412): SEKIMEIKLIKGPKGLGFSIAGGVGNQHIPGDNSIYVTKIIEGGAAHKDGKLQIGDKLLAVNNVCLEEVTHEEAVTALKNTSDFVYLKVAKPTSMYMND
Design: key: below the threshold = too weak to quantify, mostly under pKd 3.1 to 4

RALRASESGI [ADGRE5, P48960] was tested. Which pKd did it give?
Its pKd is “below the threshold”.

These binders were tested against PDLIM1, O00151 (assay: holdup assay). Conditions: plain residues with an end cap or a label only (N-terminal biotin on a linker: ado-ado).
Sequence of PDLIM1, O00151 (O00151 1-87): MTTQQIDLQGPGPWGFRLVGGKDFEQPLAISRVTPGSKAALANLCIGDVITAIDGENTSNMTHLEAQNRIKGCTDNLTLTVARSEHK
Design: key: below the threshold = too weak to quantify, mostly under pKd 3.1 to 4

For RALRASESGI [ADGRE5, P48960], which pKd is on record?
The pKd was “below the threshold”.

The binders below were run against GRASP, Q7Z6J2 (assay: holdup assay). Conditions: plain residues with an end cap or a label only (N-terminal biotin on a linker: ado-ado).
Sequence of GRASP, Q7Z6J2 (Q7Z6J2 96-193): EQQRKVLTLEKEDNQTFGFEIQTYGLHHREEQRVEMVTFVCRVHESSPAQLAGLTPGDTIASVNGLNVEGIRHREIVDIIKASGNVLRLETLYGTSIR
Design: key: below the threshold = too weak to quantify, mostly under pKd 3.1 to 4

How did the pKd turn out when RALRASESGI [ADGRE5, P48960] was run?
The pKd was “below the threshold”.

These binders were tested against T5, LIN7C, Q9NUP9 (assay: holdup assay). Conditions: plain residues with an end cap or a label only (N-terminal biotin on a linker: ado-ado).
T5 sequence (Q9NUP9 88-185, limits assumed, looked up): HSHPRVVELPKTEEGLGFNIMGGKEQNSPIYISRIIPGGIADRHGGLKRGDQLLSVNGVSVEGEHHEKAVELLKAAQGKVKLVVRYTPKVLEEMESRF
Design: key: below the threshold = too weak to quantify, mostly under pKd 3.1 to 4

With RALRASESGI [ADGRE5, P48960] as the binder, how does the pKd read?
The pKd was 4.07.

These binders were tested against T6, PDZRN3_1, Q9UPQ7 (assay: holdup assay). Conditions: plain residues with an end cap or a label only (N-terminal biotin on a linker: ado-ado).
T6 sequence (Q9UPQ7 244-349, limits assumed, looked up): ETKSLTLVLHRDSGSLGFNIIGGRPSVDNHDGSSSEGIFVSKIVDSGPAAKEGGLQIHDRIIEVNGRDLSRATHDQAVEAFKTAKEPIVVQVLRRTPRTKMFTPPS
Design: key: below the threshold = too weak to quantify, mostly under pKd 3.1 to 4

How did the pKd turn out when RALRASESGI [ADGRE5, P48960] was run?
Its pKd is “below the threshold”.

Each binder was assayed against TJP1_2, Q07157 (assay: holdup assay). Conditions: plain residues with an end cap or a label only (N-terminal biotin on a linker: ado-ado).
Sequence of TJP1_2, Q07157 (Q07157 181-274): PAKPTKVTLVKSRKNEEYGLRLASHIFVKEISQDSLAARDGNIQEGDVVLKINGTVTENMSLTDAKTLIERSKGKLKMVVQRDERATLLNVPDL
Design: key: below the threshold = too weak to quantify, mostly under pKd 3.1 to 4

RALRASESGI [ADGRE5, P48960] was tested. Which pKd did it give?
The pKd was “below the threshold”.

What follows are binders tested against DLG4_3, P78352 (assay: holdup assay). Conditions: plain residues with an end cap or a label only (N-terminal biotin on a linker: ado-ado).
Sequence of DLG4_3, P78352 (P78352 306-403): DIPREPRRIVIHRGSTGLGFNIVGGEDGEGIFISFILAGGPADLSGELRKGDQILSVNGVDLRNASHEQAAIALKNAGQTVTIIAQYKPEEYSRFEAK
Design: key: below the threshold = too weak to quantify, mostly under pKd 3.1 to 4

Which pKd does the source give for RALRASESGI [ADGRE5, P48960] here?
The pKd was “below the threshold”.

What follows are binders tested against Inadl_8, Q8NI35 (assay: holdup assay). Conditions: plain residues with an end cap or a label only (N-terminal biotin on a linker: ado-ado).
Sequence of Inadl_8, Q8NI35 (Q8NI35 1425-1530): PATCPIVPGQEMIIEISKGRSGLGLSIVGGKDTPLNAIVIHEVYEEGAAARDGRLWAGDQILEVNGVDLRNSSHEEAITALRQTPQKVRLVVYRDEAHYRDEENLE
Design: key: below the threshold = too weak to quantify, mostly under pKd 3.1 to 4

For RALRASESGI [ADGRE5, P48960], which pKd is on record?
The pKd was “below the threshold”.

The binders below were run against DLG4_1, P78352 (assay: holdup assay). Conditions: plain residues with an end cap or a label only (N-terminal biotin on a linker: ado-ado).
Sequence of DLG4_1, P78352 (P78352 62-152): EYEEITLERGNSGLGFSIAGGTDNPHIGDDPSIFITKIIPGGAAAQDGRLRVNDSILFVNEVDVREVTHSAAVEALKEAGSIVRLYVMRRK
Design: key: below the threshold = too weak to quantify, mostly under pKd 3.1 to 4

For RALRASESGI [ADGRE5, P48960], which pKd is on record?
The pKd was “below the threshold”.

These binders were tested against DLG2_3, Q15700 (assay: holdup assay). Conditions: plain residues with an end cap or a label only (N-terminal biotin on a linker: ado-ado).
Design: key: below the threshold = too weak to quantify, mostly under pKd 3.1 to 4

For RALRASESGI [ADGRE5, P48960], which pKd is on record?
Its pKd is “below the threshold”.

Reference: paper PMC9482650, “Quantitative fragmentomics allow affinity mapping of interactomes” (Nature Communications, 2022)
